Measured values: patent US20240254209A1
Values joined by “and” are separate entries in the source; they are usually repeats but may differ in a detail not shown here. Equal values may be shown once.

T1: peanut allergen Ara h 1 (peanut (Arachis hypogaea)) (UniProt P43238)
T1 sequence (looked up): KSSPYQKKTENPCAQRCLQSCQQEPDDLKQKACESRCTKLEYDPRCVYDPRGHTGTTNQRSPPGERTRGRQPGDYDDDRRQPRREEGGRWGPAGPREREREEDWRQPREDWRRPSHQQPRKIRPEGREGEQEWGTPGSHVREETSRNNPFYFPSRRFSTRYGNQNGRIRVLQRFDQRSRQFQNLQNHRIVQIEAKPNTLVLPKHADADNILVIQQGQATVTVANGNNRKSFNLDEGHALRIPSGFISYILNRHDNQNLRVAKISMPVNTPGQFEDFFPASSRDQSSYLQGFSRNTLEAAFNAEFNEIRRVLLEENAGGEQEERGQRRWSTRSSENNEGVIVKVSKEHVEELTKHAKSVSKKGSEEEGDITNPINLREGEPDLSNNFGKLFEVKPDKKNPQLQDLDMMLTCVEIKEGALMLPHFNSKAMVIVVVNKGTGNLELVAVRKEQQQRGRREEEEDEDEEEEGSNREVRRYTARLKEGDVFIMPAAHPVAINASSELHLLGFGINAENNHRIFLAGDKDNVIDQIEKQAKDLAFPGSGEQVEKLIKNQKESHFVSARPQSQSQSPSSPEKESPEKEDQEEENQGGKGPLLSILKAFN

T2: peanut allergen Ara h 2 (peanut (Arachis hypogaea)) (UniProt Q6PSU2)
T2 sequence (looked up): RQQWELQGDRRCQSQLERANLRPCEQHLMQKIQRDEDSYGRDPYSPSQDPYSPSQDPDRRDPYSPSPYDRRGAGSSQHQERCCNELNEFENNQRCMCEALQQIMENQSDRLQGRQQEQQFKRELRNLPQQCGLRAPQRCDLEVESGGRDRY

T3: peanut allergen Ara h 6 (peanut (Arachis hypogaea)) (UniProt Q647G9)
T3 sequence (looked up): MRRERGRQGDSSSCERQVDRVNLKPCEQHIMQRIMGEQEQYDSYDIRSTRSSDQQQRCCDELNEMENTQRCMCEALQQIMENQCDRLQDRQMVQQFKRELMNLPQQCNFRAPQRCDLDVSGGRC


What was measured:
[1] = molecular target: T1, peanut allergen Ara h 1 (peanut (Arachis hypogaea)); test: ImmunoCAP, hybridoma supernatant
[2] = molecular target: peanut extract (peanut ImmunoCAP F13); test: ImmunoCAP, hybridoma supernatant
[3] = molecular target: T2, peanut allergen Ara h 2 (peanut (Arachis hypogaea)); test: ImmunoCAP, hybridoma supernatant
[4] = molecular target: T3, peanut allergen Ara h 6 (peanut (Arachis hypogaea)); test: Ara h 6 ImmunoCAP serum blocking; competitor: serum IgE of peanut allergic subjects
[5] = molecular target: peanut extract (peanut ImmunoCAP F13); test: peanut ImmunoCAP serum blocking; competitor: serum IgE of peanut allergic subjects

Binder	ImmunoCAP kUA/L [1] [kUA/L]	ImmunoCAP kUA/L [2] [kUA/L]	ImmunoCAP kUA/L [3] [kUA/L]	percent of serum Ara h 6-specific IgE blocked [4] [%]	percent of total peanut binding serum IgE blocked [5]
human IgE mAb 3C3 (antibody, V domains shown) VH: QLQLQESGPGLVKPSETLSLTCSISGASINSDDYYWGWIRQAPGEALEWIASIDASGTTFYNPSLRSRVTISVDTSTNQISLRLNSVTAADTAIYYCARRKTYYDFLTDYYNWYFDVWGRGTLVTVSS VL: QSALTQPRSVSGSPGQSVTFSCTGINSDIRDYDYVSWYQQHPGEAPKLIIYDVTKRASGVPSRFSGSKSGNTASLTISGLQAEDEADYYCCSYSVTYSFEVFGTGTQVSVL	0.6	3140	0.85	–	–
human IgE mAb 7B6 (antibody, V domains shown) VH: QVQLQQWGAGLLKPSETLSLTCAVYGGSFNGYYWSWIRQPPGKGLEWIGEIDHSGSTNYNSSLKSRVTISVDTSKNQFSLKLSSVTAADTAVYYCARRRIGSLLKYFQDWGQGTLVTVSS VL: SYELTQPPSVSVSPGQTASITCSGDKLGDSYVCWYQLKPGQSPVLVIYQDTKRPSGIPERFSGSNSGNTATLTISETQAMDEADYYCQAWDTTTDWVFGGGTKLTVL	0.19	420	0.41	–	–
Ara h 6-specific blocking IgG mAb 8F3 (antibody, V domains shown) VH: QLQLQESGPGLVKPSETLSLTCTVSDASIDTPSYFWSWIRQPPGKGLEWIGSIYYTGNKYSNPSLKSRVTMSVDTPKRQFSLRLSSVTAADTAVYYCARYVDYVWLRAFDIWGQGTRVTVSS VL: EIVLTQSPATLSLSPGERATLSCRASPSAGRFLAWYQQRPGQAPRLLIYDASKRATDTPARFSGSGSGTDFNLTIASLEPEDFAVYYCQHRSNWPLTFGGGTKVEIK	–	–	–	50	20% and 25%
human IgE mAb 2C9 (antibody, V domains shown) VH: QVQLVESGGGLVKPGGSLRLSCAASGFSFSDFYMSWIRQAPGKGLECISYMSSSGGNIYYADSVKGRFTISRDNAKNSLSLQMNSLRADDTALYYCARRRYGSGSSIFDYWSQGTLVTVSS VL: SYELTQPPSVSVSPGQTASVTCSGDTLGDRYVSWYQQKAGQSPVLVIYQSGQRPSGIPERFSGSNSGNTATLSISETQALDEADYYCLTWDRGTPVFGPGTTVTVV	–	21.4	0.13	–	–
Ara h 6-specific blocking IgG mAb 1H9 (antibody, V domains shown) VH: QVQLVQSGSELRKPGASVKVSCKASGYTFTKYGMNWVRQAPGQGLEWMGWINTNTAKPTYAQDFTGRFVFSLDTSVNTAYLEISGLKAEDTAVYYCATDGSEGSWGQGTLVTVSS VL: DIQMTQSPSTLSASVGDRVTITCRASQSIGTWLAWHQQKPGTAPKVLIYKASNLKSGVPSRFSGSGSGTDFTLTISSLQPDDVATYYCQQYNTYSGTFGQGTRVEIK	–	–	–	50	20% and 25%
human IgE mAb 3B7 (antibody, V domains shown) VH: QVQLVQSGSELKKPGASMKVSCKASGYTFTNYAMNWVRQAPGQGLEWMGWINTNTGKPTYAQGFTGRFVFSLDTSVSMAYLQISSLEAGDTAVYFCARGESLAALGSFAYWGQGTLVTVSS VL: DIQMTQSPSSLSASVGDRVTITCRASQSINSYLAWYQQKPGKAPNLLIYAASNLQSGVPSRFSGSGSGTDFTLTISSLQPEDFATYYCQQSSSTFWTFGQGTKVEIK	0.3	1500	0.63	–	–

More lines, now with the values ahead:

ImmunoCAP kUA/L [1] [kUA/L]	ImmunoCAP kUA/L [2] [kUA/L]	ImmunoCAP kUA/L [3] [kUA/L]	percent of serum Ara h 6-specific IgE blocked [4] [%]	percent of total peanut binding serum IgE blocked [5]	Binder
0.36	715	0.46	–	–	human IgE mAb 21C10 (antibody, V domains shown) VH: EVQLVESGGGLVKPGGSLRLSCAASGFILSRSSMSWVRQAPGKGLEWVSYISSTSSHIYYADSLKGRFTISRDNTENSVYLQMSSLRAEDTGVYYCARKTNGAWFLDLWGRGTLVTVSS VL: QSVLTQPPSVSGAPGQRVTISCTGSSSNIGAGSDVHWYQQFPGSAPHVLIYGNNQRPSGVPDRFSASKSGTSASLAITGLQADDEADYYCQSYDYDLSGSWVFGGGTKLTVL
–	14	25.8	–	–	human IgE mAb 15A7 (antibody, V domains shown) VH: QVQLVQSGPEVRKPGASVKVSCKTSGYMFTDYEMNWVRQAPGQGLEWMGLINPHSGDTGYAQKFQGRVSMTSDTSTRTFYLELTGLTSEDTAVYYCARSQGTFEVYYFVSWGQGSLVTVSS VL: SYVLTQPPSVSVAPGKTASITCGAKNIATKRVHWYRQKPGQAPVVVVSDEEDRSSVIPERFSGSKSGDTATLEISRVEAGDEADYYCQVWDSLADQVVFGGGTKVTVL
0.15	783	0.46	–	–	human IgE mAb 26A5 (antibody, V domains shown) VH: QVQLVQSGSELRKPGASVKVSCKASGYTFTKYGMNWVRQAPGQGLEWMGWINTNTAKPTYAQDFTGRFVFSLDTSVNTAYLEISGLKAEDTAVYYCATDGSEGSWGQGTLVTVSS VL: DIQMTQSPSTLSASVGDRVTITCRASQSIGTWLAWHQQKPGTAPKVLIYKASNLKSGVPSRFSGSGSGTDFTLTISSLQPDDVATYYCQQYNTYSGTFGQGTRVEIK
0.11	286	203	–	–	human IgE mAb 38B7 (antibody, V domains shown) VH: QVQLVESGGGVVQPGRSLRLSCVGSGFTFRRDAKYWVRQAPGKGLEWVAAISHDGGEEDYAESVKGRFTISRDNSRETVYLEMNSLRPEDTAVYYCATTRSGWYFDYWGQGALVTVSS VL: EIVLTQSPATLSLSPGARATLSCRASQSVDTYLAWYQQRRGQSPRLLIYDASKRATGIPARFSGSGSGTDFTLTISSLEPEDFAVYYCQQRNNWRTWTFGQGTKVEIN
